Experimental findings from patent publication US20190209659, “STABLE LIQUID FIBRINOGEN” (LABORATOIRE FRANCAIS DU FRACTIONNEMENT ET DES …, published 2019) are described below.

Series [1] deals with T1, fibrinogen (transgenic, human) (Homo sapiens, UniProt P02671-2;P02675;P02679-2 P02671-2:20-644,P02675:31-491,P02679-2:27-437). The series is described as follows: SPR; dose-dependent 125-1000 nM, pH 6.3; resists 0.5 M NaCl, eluted at pH 7.4. As to conditions: tags: purified from transgenic cow milk, 97% purity; chain copies: 2. The protocol: Each solution of transgenic fibrinogen was injected at pH 6.3 in such a way that a complex was formed in a dose-dependent manner as shown by the increase in the signals depending on the concentration of fibrinogen. […] The fibrinogen was then released from the complex by an elution buffer at pH 7.40. The solid support was then regenerated by injection of a solution of NaOH 50 mM. X-axis: time in s. Y-axis: SPR response in arbitrary unit.
T1 sequence (P02671 other isoform, or with tags, fused parts or gaps, chain 1 of 3): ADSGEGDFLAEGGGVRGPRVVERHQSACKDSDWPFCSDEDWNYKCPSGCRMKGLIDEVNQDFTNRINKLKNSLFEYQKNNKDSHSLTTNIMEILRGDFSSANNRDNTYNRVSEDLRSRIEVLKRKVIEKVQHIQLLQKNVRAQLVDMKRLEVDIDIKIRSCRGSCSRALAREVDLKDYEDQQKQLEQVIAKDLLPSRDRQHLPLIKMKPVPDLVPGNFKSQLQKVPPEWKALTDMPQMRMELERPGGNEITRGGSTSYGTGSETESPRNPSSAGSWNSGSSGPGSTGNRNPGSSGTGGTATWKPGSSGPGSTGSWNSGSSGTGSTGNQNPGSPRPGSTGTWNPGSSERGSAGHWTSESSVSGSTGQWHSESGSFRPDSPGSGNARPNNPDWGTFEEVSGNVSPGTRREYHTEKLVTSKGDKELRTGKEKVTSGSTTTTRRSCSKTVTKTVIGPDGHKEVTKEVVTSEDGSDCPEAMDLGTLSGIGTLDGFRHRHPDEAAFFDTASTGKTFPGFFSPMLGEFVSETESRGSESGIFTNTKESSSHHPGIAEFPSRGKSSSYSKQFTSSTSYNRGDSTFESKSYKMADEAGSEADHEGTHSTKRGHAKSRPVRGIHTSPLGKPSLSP
T1 sequence (P02675 31-491, chain 2 of 3): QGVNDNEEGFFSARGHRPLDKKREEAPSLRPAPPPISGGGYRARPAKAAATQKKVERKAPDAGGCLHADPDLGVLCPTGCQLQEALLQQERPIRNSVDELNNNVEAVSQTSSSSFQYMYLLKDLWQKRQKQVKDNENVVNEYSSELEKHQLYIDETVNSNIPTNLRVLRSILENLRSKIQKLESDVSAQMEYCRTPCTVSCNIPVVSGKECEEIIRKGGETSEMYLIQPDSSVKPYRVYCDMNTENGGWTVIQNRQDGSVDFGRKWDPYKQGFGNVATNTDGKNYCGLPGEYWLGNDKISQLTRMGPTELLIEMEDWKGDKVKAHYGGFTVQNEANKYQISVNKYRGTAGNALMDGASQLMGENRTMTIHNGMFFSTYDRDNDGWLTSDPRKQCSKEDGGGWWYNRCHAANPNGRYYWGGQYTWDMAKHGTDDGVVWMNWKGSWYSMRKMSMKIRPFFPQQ
T1 sequence (P02679 other isoform, or with tags, fused parts or gaps, chain 3 of 3): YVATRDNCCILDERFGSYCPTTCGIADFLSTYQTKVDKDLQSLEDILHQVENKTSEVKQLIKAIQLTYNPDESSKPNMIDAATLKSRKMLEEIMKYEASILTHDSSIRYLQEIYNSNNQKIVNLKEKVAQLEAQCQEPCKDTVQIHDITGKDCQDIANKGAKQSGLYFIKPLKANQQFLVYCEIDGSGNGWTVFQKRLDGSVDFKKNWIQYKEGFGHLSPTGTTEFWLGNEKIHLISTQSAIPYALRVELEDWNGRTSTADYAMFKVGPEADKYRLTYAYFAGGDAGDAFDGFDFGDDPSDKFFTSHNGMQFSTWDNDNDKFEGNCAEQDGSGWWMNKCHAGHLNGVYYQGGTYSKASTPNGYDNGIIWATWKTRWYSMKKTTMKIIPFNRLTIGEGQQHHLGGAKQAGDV
(§1) The chosen aptamer was synthesised with biotin and a spacer of triethylene glycol at the end 5′ of the oligonucleotide. A solution 1 μM of the aptamer was prepared using the SELEX selection buffer. The aptamer solution was heated to 90° C. for 5 min, incubated in ice for 5 min and balanced at the ambient temperature for 10 min. The preparation was injected into a sensor chip coated with streptavidin SA from Biocore T200 instrument (GE Healthcare) at a debit of […] for 7 min. Then, various concentrations of the target were injected onto the immobilised aptamer at a rate of 30 μl/min for 1 minute. After a dissociation for 1-2 min, a step of washing was carried out via injection of a suitable wash buffer at a rate of 30 μl/min for 1 min. For the elution, a suitable elution buffer was injected at a rate of 30 μl/min for 1-2 min. […] During the experiment, the response signal was recorded in a sensorgram.
Background: SPR reads the build-up and loss of mass on a sensor chip optically.

Series [2] deals with T2, fibrinogen (plasma) (Homo sapiens, UniProt P02671-2;P02675;P02679-2 P02671-2:20-644,P02675:31-491,P02679-2:27-437). The series is described as follows: SPR; dose-dependent 125-1000 nM, pH 6.3, MOPS, NaCl 150 mM, MgCl2 5 mM; resists 0.5 M NaCl, eluted at pH 7.4. As to conditions: tags: human plasma purified, 95% or 99.9% purity; semi-purified and plasma used in chromatography; chain copies: 2. The procedure:
Each solution of human plasma fibrinogen was injected at pH 6.3 in such a way that a complex was formed in a dose-dependent manner as shown by the increase in the signals depending on the concentration of fibrinogen. […] The fibrinogen was then released from the complex by an elution buffer at pH 7.40. The solid support was then regenerated by injection of a solution of NaOH 50 mM. X-axis: time in s. Y-axis: SPR response in arbitrary unit.
as §1

The target in series [3] is T2, fibrinogen (plasma). Nature of the series: competition; significant inhibition of fibrinogen binding to immobilised SEQ 66 (SPR). The settings on record: tags: human plasma purified, 95% or 99.9% purity; semi-purified and plasma used in chromatography; chain copies: 2. The protocol:
(§2) In order to compare the affinity of the designed variants with that of the parental aptamer, a concurrent test was conducted. Firstly, a 1 μM solution of the aptamer of SEQ ID NO 66 was prepared using binding buffer. The aptamer solution was heated to 90° C. for 5 min, incubated in ice for 5 min and balanced at the ambient temperature for 10 min. The preparation was injected into a sensor chip coated with streptavidin SA from Biacore T200 instrument (GE Healthcare) at a rate of 10 μl/min for 7 min. Then, mixtures containing a variant (2 μM) and the human plasma fibrinogen (0.4 μM) were injected on the aptamer immobility at a rate of 30 μl/min for 1 minute. The response obtained for the various fragment/fibrinogen mixtures was compared.

In series [4] the target is T2, fibrinogen (plasma). The series is described as follows: competition; 2 uM variant with 0.4 uM fibrinogen over immobilised SEQ 66 (SPR); among highest affinity. As to conditions: tags: human plasma purified, 95% or 99.9% purity; semi-purified and plasma used in chromatography; chain copies: 2. The protocol: as §2
In series [5] the target is T2, fibrinogen (plasma). The series is described as follows: SPR; stated strong affinity, pH-dependent. The settings on record: tags: human plasma purified, 95% or 99.9% purity; semi-purified and plasma used in chromatography; chain copies: 2.
Series [6] addresses T1, fibrinogen (transgenic, human). The series is described as follows: SPR; stated strong affinity, pH-dependent. The settings on record: tags: purified from transgenic cow milk, 97% purity; chain copies: 2.
Series [7] deals with T2, fibrinogen (plasma). The series is described as follows: SPR; 250 nM fibrinogen, pH 6.3; resists 0.5 M NaCl. As to conditions: tags: human plasma purified, 95% or 99.9% purity; semi-purified and plasma used in chromatography; chain copies: 2.
The target of series [8] is T1, fibrinogen (transgenic, human). Nature of the series: SPR; stated strong affinity for plasma and transgenic fibrinogen, pH 6.3. As to conditions: tags: purified from transgenic cow milk, 97% purity; chain copies: 2.
Series [9] addresses T2, fibrinogen (plasma). Nature of the series: SPR; dose-dependent 125-1000 nM, pH 6.3; resists 1 M NaCl, eluted at pH 7.4 with 2 M MgCl2. As to conditions: tags: human plasma purified, 95% or 99.9% purity; semi-purified and plasma used in chromatography; chain copies: 2. The procedure:
Each solution of human plasma fibrinogen was injected at pH 6.3 in such a way that a complex was formed in a dose-dependent manner as shown by the increase in the signals depending on the concentration of fibrinogen. […] The fibrinogen was then released from the complex by an elution buffer at pH 7.40 and containing MgCl₂ 2 M. The solid support was then regenerated by injection of a solution of NaOH 50 mM. X-axis: time in s. Y-axis: SPR response in arbitrary unit.
as §1

In series [10] the target is T1, fibrinogen (transgenic, human). Described as above. The settings on record: tags: purified from transgenic cow milk, 97% purity; chain copies: 2. The protocol:
Each solution of transgenic fibrinogen was injected at pH 6.3 in such a way that a complex was formed in a dose-dependent manner as shown by the increase in the signals depending on the concentration of fibrinogen. […] The fibrinogen was then released from the complex by an elution buffer at pH 7.40 and containing MgCl₂ 2 M. The solid support was then regenerated by injection of a solution of NaOH 50 mM. X-axis: time in s. Y-axis: SPR response in arbitrary unit.
as §1

T2 sequence (P02671 other isoform, or with tags, fused parts or gaps, chain 1 of 3): as the sequence (P02671 other isoform, or with tags, fused parts or gaps, chain 1 of 3) above
T2 sequence (P02675 31-491, chain 2 of 3): as the sequence (P02675 31-491, chain 2 of 3) above
T2 sequence (P02679 other isoform, or with tags, fused parts or gaps, chain 3 of 3): as the sequence (P02679 other isoform, or with tags, fused parts or gaps, chain 3 of 3) above

B1: SEQ ID NO 66 (A5-1.9 base sequence) (ssDNA)
DNA: GGGTCAATGCCAGGTCTCGGACCTGGAATCCGCCACCCGCATTAGAACCAGGGTTGAC
modifications: 5' biotin-triethylene glycol (SPR); 5' amino-C6 spacer and 3' inverted dT (affinity support)
As to B1, the binding result (in series [1]; with fibrinogen (plasma) [2]) was “binds” in each case.

B2: SEQ ID NO 90 variant (ssDNA)
DNA: GTCAATGCCAGGTCTCGGACCTGGAATCCGCCACCCGCATAGAACCAGGGTTGAC
For B2, the binding result with fibrinogen (plasma) [3] is listed as “binds”.

B3: SEQ ID NO 92 variant (ssDNA)
DNA: GTCAATGCCAGGTCTCGGACCTGGAATCCGCCACCCGCTTAGAACCAGGGTTGAC
On to B3, for which the binding result with fibrinogen (plasma) [3] is listed as “binds”.

B4: SEQ ID NO 82 variant (ssDNA)
DNA: GTCAATGCCAGTCGCTGGAATCCGCCACCCGCATTAGAACCAGGGTTGAC
On to B4, for which, in the series with fibrinogen (plasma) [4], the binding result was “binds”.

B5: SEQ ID NO 80 variant (deletion 1/2) (ssDNA)
DNA: GTCAATGCCAGGTCTCGGACCTGGAATCCGCCACCCGCATTAGAACCAGGGTTGAC
As to B5, the binding result with fibrinogen (plasma) [4] is on record as “binds”.

B6: SEQ ID NO 58 aptamer (ssDNA)
DNA: GGGTCAATGCCAGGTCTCAACTTTCGCGTGTGGTTGGTAGGGCTAGGTGTATACGCATATCGGCTCGCAAGCAGTC
modifications: 5' biotin-triethylene glycol
For the molecule B6, the binding result (with fibrinogen (plasma) [5]; in [6]) was “binds” throughout.

B7: SEQ ID NO 89 variant (ssDNA)
DNA: GTCAATGCCAGGTCTCGGACCTGGAATCCGCCACCCGCATTAGAACCAGGGTTGA
On to B7, for which the binding result with fibrinogen (plasma) [3] is on record as “binds”.

B8: SEQ ID NO 83 variant (ssDNA)
DNA: GTCAATGCCAGGTCTCCTGGAATCCGCCACCCGCATTAGAACCAGGGTTGAC
Regarding B8, the binding result in the series with fibrinogen (plasma) [4] is listed as “binds”.

B9: SEQ ID NO 93 variant (ssDNA)
DNA: GTCAATGCCAGCGGACCTGGAATCCGCCACCCGCATTAGAACCAGGGTTGAC
As to B9, the binding result with fibrinogen (plasma) [3] is reported as “binds”.

B10: SEQ ID NO 84 variant (ssDNA)
DNA: GTCAATGCCAGGTCACCTGGAATCCGCCACCCGCATTAGAACCAGGGTTGAC
Turning to B10, the binding result in the series with fibrinogen (plasma) [4] is “binds”.

B11: SEQ ID NO 86 variant (ssDNA)
DNA: GTCAATGCCAGGTCGCCTGGAATCCGCCACCCGCATTAGAACCAGGGTTGAC
Regarding B11, the binding result with fibrinogen (plasma) [4] is recorded as “binds”.

B12: SEQ ID NO 65 aptamer (ssDNA)
DNA: GGGTCAATGCCAGGTCTCGAGCCGGTGTTGTGTTATGTTGGTAGGGAAGGTGTATAATATCGGCTCGCAAGCAGTC
modifications: 5' biotin-triethylene glycol
Turning to B12, the binding result (with fibrinogen (plasma) [7]; in series [8]) was “binds” in each case.

B13: SEQ ID NO 60 aptamer (ssDNA)
DNA: GGGTCAATGCCAGGTCTCTGCGTACTTATCTCGATGTGGTTGGTAGGGATAGGTGTATATCGGCTCGCAAGCAGTC
modifications: 5' biotin-triethylene glycol
Take B13: the binding result (with fibrinogen (plasma) [7]; in series [8]) was “binds” each time.

B14: SEQ ID NO 1 aptamer (ssDNA)
DNA: GGGTCAATGCCAGGTCTCGGACCTGGAATCCGCCACCCGCATTAGAACCAGGGTTGACATCGGCTCGCAAGCAGTC
modifications: 5' biotin-triethylene glycol
For B14, the binding result (with fibrinogen (plasma) [5]; in series [6]) was “binds” in each case.

B15: SEQ ID NO 67 (A5-2.9 base sequence) (ssDNA)
DNA: CGCGTGTGGTTGGTAGGGCTAGGTGTATACGCAT
modifications: 5' biotin-triethylene glycol (SPR); 5' amino-C6 spacer and 3' inverted dT (affinity support)
Take B15: the binding result (in the series with fibrinogen (plasma) [9]; in series [10]) was “binds” each time.

B16: SEQ ID NO 81 variant (ssDNA)
DNA: GTCAATGCCAGGTCTCCCTGGAATCCGCCACCCGCATTAGAACCAGGGTTGAC
For B16, the binding result in the series with fibrinogen (plasma) [4] is “binds”.

B17: SEQ ID NO 85 variant (ssDNA)
DNA: GTCAATGCCAGGTCGACCTGGAATCCGCCACCCGCATTAGAACCAGGGTTGAC
For B17, the binding result in the series with fibrinogen (plasma) [4] is listed as “binds”.

B18: SEQ ID NO 91 variant (ssDNA)
DNA: GTCAATGCCAGTCGGACCTGGAATCCGCCACCCGCATTAGAACCAGGGTTGAC
Consider B18, for which, in the series with fibrinogen (plasma) [3], the binding result was “binds”.

B19: SEQ ID NO 87 variant (ssDNA)
DNA: GTCAATGCCAGGTCTCACCTGGAATCCGCCACCCGCATTAGAACCAGGGTTGAC
For B19, the binding result in the series with fibrinogen (plasma) [4] was “binds”.

B20: SEQ ID NO 88 variant (ssDNA)
DNA: GTCAATGCCAGGTCGGACCTGGAATCCGCCACCCGCATTAGAACCAGGGTTGAC
On to B20, for which the binding result with fibrinogen (plasma) [3] is given as “binds”.
